Experimental findings from patent US20170253633A1 are described below.

The assay concerns the target HLA-A*02:01 (human). Kind of assay: UV-ligand exchange + anti-b2m ELISA; ++++ = peptide exchange yield >75%.

Where only a bound is given, the exact number is not on record here.

Regarding KLLETKWTL (modifications not checked) […], the peptide exchange yield is more than 75%.
